Laboratory results taken from patent US20200239543A1 (ALX ONCOLOGY, published 2020).
Positions count from the first letter of the chain named.

B1: SIRP-α D1 variant fused to Fc variant, SEQ ID NO: 135 (Fc fusion)
chain: EEELQVIQPDKSVLVAAGETATLRCTATSLFPVGPIQWFRGAGPGRELIYNQREGPFPRVTTVSDLTKRNNMDFSIRIGAITPADAGTYYCVKFRKGSPDDVEFKSGAGTELSVRAKPSDKTHTCPPCPAPEAAGAPSVFLFPPKPKDTLMISRTPEVTCVVVDVSHEDPEVKFNWYVDGVEVHNAKTKPREEQYASTYRVVSVLTVLHQDWLNGKEYKCKVSNKALPAPIEKTISKAKGQPREPQVYTLPPSREEMTKNQVSLTCLVKGFYPSDIAVEWESNGQPENNYKTTPPVLDSDGSFFLYSKLTVDKSRWQQGNVFSCSVMHEALHNHYTQKSLSLSPG
B2: SIRP-α D1 variant fused to Fc variant, SEQ ID NO: 101 (Fc fusion)
chain: EEELQVIQPDKSVLVAAGETATLRCTITSLFPVGPIQWFRGAGPGRELIYNQREGPFPRVTTVSDLTKRNNMDFSIRIGAITPADAGTYYCVKFRKGSPDDVEFKSGAGTELSVRAKPSDKTHTCPPCPAPEAAGAPSVFLFPPKPKDTLMISRTPEVTCVVVDVSHEDPEVKFNWYVDGVEVHNAKTKPREEQYASTYRVVSVLTVLHQDWLNGKEYKCKVSNKALPAPIEKTISKAKGQPREPQVYTLPPSREEMTKNQVSLTCLVKGFYPSDIAVEWESNGQPENNYKTTPPVLDSDGSFFLYSKLTVDKSRWQQGNVFSCSVMHEALHNHYTQKSLSLSPGK
B3: SIRP-α D1 variant fused to Fc variant, SEQ ID NO: 99 (Fc fusion)
chain: B2 chain with I27A, E54Q
B4: SIRP-α D1 variant fused to Fc variant, SEQ ID NO: 102 (Fc fusion)
chain: B2 chain with V6I
B5: SIRP-α D1 variant fused to Fc variant, SEQ ID NO: 110 (Fc fusion)
chain: EEELQVIQPDKSVLVAAGETATLRCTITSLFPVGPIQWFRGAGPGRELIYNQREGPFPRVTTVSDLTKRNNMDFSIRIGAITPADAGTYYCVKFRKGSPDDVEFKSGAGTELSVRAKPSVECPPCPAPPVAGPSVFLFPPKPKDTLMISRTPEVTCVVVDVSHEDPEVQFNWYVDGVEVHNAKTKPREEQFASTFRVVSVLTVVHQDWLNGKEYKCKVSNKGLPSSIEKTISKTKGQPREPQVYTLPPSREEMTKNQVSLTCLVKGFYPSDIAVEWESNGQPENNYKTTPPMLDSDGSFFLYSKLTVDKSRWQQGNVFSCSVMHEALHNHYTQKSLSLSPGK
B6: SIRP-α D1 variant fused to Fc variant, SEQ ID NO: 106 (Fc fusion)
chain: B5 chain with I27A, E54Q, A80N
B7: SIRP-α D1 variant polypeptide of SEQ ID NO: 64 (receptor)
chain: EEELQVIQPDKSVSVAAGESAILHCTVTSLIPVGPIQWFRGAGPARELIYNQREGPFPRVTTVSESTKRENMDFSISISNITPADAGTYYCVKFRKGSPDTEFKSGAGTELSVRAKPS
notes: engineered SIRP-α D1 domain
B8: SIRP-α D1 variant polypeptide of SEQ ID NO: 65 (receptor)
chain: B7 chain with I31F
notes: engineered SIRP-α D1 domain
B9: SIRP-α D1 variant polypeptide of SEQ ID NO: 66 (receptor)
chain: B7 chain with V27I, I31F
notes: engineered SIRP-α D1 domain
B10: SIRP-α D1 variant polypeptide of SEQ ID NO: 67 (receptor)
chain: B7 chain with V27I, I31F, S66T
notes: engineered SIRP-α D1 domain
B11: SIRP-α D1 variant polypeptide of SEQ ID NO: 68 (receptor)
chain: B7 chain with V6I, V27I, I31F
notes: engineered SIRP-α D1 domain
B12: SIRP-α D1 variant polypeptide of SEQ ID NO: 69 (receptor)
chain: B7 chain with V27I
notes: engineered SIRP-α D1 domain
B13: SIRP-α D1 variant polypeptide of SEQ ID NO: 78 (receptor)
chain: EEELQIIQPDKSVLVAAGETATLRCTITSLFPVGPIQWFRGAGPGRVLIYNQRQGPFPRVTTVSDTTKRNNMDFSIRIGAITPADAGTYYCIKFRKGSPDDVEFKSGAGTELSVRAKPS
notes: engineered SIRP-α D1 domain
B14: SIRP-α D1 variant polypeptide of SEQ ID NO: 79 (receptor)
chain: B13 chain with I6V, I27A, V47E, T66L, I92V
notes: engineered SIRP-α D1 domain
B15: SIRP-α D1 variant polypeptide of SEQ ID NO: 80 (receptor)
chain: B13 chain with Q54E
notes: engineered SIRP-α D1 domain

Target: T1, human CD47 (human, UniProt Q08722 19-139)
T1 construct: extracellular domain; also called CD47 ECD
T1 sequence (Q08722 19-139 limits assumed): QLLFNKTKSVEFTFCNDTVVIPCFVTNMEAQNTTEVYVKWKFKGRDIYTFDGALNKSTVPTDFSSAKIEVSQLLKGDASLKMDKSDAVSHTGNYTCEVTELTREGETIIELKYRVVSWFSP
Assay: SPR as in Example 1

Row | Binder | Kd
1 | B1 | 3.46 nM
2 | B2 | 0.89 nM
3 | B3 | 0.895 nM
4 | B4 | 0.379 nM
5 | B5 | 0.653 nM
6 | B6 | 0.811 nM

Target: T1, human CD47
Assay: SPR, 25 C, 1:1 Langmuir fit

Row | Binder | Kd
7 | B7 | 5.45 nM
8 | B8 | 0.8 nM
9 | B9 | 0.47 nM
10 | B10 | 0.206 nM
11 | B11 | 0.251 nM
12 | B12 | 2.4 nM
13 | B13 | 0.0144 nM
14 | B14 | 0.217 nM
15 | B15 | 0.0472 nM
